Assay results as given in the supplement of paper PMC10065799, “High-throughput profiling of sequence recognition by tyrosine kinases and SH2 domains using bacterial peptide display” (eLife, 2023).
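Note: 11-residue human phosphosite peptides and single-mutation variants displayed on the E. coli surface, counted by deep sequencing, each peptide's frequency after selection divided by its frequency in the unselected input library; frequency after pTyr selection over input frequency; kinase dosed for 20-30% of maximal phosphorylation in three min.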

What follows are sequences tested against MERTK (UniProt Q12866) (assay: phosphorylation enrichment, bacterial display (enrichment ratio); higher = better substrate or ligand; peptides without Tyr show the background).
Sequence of MERTK (Q12866 whole entry, looked up): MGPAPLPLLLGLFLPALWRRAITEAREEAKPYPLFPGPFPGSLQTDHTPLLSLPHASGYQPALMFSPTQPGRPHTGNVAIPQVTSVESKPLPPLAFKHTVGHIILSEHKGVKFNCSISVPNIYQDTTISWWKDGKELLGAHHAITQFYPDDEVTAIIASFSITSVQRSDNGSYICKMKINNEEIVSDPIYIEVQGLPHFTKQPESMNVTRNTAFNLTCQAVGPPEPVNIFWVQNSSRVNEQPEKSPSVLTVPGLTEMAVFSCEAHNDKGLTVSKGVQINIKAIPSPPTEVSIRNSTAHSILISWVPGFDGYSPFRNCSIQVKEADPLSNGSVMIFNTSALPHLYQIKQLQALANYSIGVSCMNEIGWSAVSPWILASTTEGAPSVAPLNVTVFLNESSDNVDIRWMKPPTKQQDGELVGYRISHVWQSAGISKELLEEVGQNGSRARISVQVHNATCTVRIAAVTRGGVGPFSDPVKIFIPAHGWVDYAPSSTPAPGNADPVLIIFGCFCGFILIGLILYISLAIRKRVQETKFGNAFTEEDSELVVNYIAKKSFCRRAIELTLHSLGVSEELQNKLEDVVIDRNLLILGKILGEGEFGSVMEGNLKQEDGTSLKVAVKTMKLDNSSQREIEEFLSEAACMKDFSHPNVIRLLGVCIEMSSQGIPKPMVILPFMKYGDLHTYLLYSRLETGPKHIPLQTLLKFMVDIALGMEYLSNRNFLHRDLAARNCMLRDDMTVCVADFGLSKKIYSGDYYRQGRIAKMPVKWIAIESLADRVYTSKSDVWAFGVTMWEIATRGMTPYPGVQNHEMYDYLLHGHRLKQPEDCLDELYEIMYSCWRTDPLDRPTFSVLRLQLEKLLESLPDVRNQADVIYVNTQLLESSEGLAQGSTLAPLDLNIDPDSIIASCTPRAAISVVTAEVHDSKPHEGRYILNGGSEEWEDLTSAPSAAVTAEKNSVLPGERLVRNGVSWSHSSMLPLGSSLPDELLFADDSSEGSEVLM
For KWRGQYDVAIR [BTK_Y425_K430R], the phosphorylation enrichment was 0.341.
For LSPNMYNSKFW [TARSL2_Y457_L461F], the phosphorylation enrichment was 1.11.
For EEGRVYVYHLS [ITGAE_Y549_R552H], the phosphorylation enrichment was 0.449.
Work on FHLLPYTIRAM [PARS2_Y93_V95I_YF] yielded a phosphorylation enrichment of 0.373.
NNTFLYQLVFD [EXO1_Y284] showed a phosphorylation enrichment of 5.99.
PIYLYYLMDLS [ITGB2_Y131_D128Y] was tested, and the phosphorylation enrichment was 11.1.
DAVCYYRMENA [NPHS2_Y195_I192V] was tested, and the phosphorylation enrichment was 1.82.
PYSNSYENSLI [EPOR_Y489_P488S] gave a phosphorylation enrichment of 0.552.
FEDALYTVLHR [UNC13D_Y61_YF] showed a phosphorylation enrichment of 9.68.
For ARLEYYENEKK [IRS1_Y47], the phosphorylation enrichment was 0.571.
WAAQRYGRELR [BAD_Y110] gave a phosphorylation enrichment of 0.514.
FENGEYIVRQG [PRKG1_Y247_I249V_YF] showed a phosphorylation enrichment of 0.39.
Sequence EQKRYYNAMKK [SCN5A_Y1495_K1493R] has a phosphorylation enrichment of 0.547.
Work on RFLTRYIFNRE [HLA-DQB1_Y62_V59L_YF] yielded a phosphorylation enrichment of 0.578.
Sequence AASTDYYKRGD [PDHA1_Y242] has a phosphorylation enrichment of 0.511.
With RIFDYYSARKA [STOX1_Y858] the phosphorylation enrichment was 0.582.
In the case of CTTILYNFMCN [TP53_Y234_H233L_YF], the phosphorylation enrichment is reported as 1.68.
KQFWRYFAGNL [SLC25A4_Y112] was tested, and the phosphorylation enrichment was 0.542.
RVLHNYLVWCV [ECEL1_Y400_R404C] showed a phosphorylation enrichment of 0.631.
ADIETYLLEKS [MYH7_Y266] gave a phosphorylation enrichment of 0.46.
RLLVVYPWTKR [HBB_Y36_Q40K] gave a phosphorylation enrichment of 0.612.
In the case of SGRPGYCLGTR [SCO1_Y60], the phosphorylation enrichment is reported as 0.462.
Work on SVLVPYEPPEV [TP53_Y220_V217L] yielded a phosphorylation enrichment of 0.463.
Work on DEDYLYREELA [POR_Y575] yielded a phosphorylation enrichment of 0.502.
SNSATYSGSVA [PDLIM5_Y382] gave a phosphorylation enrichment of 0.516.
QLHEHYKIHKE [NSMAF_Y626] showed a phosphorylation enrichment of 0.878.
EDGRLYAVKCS [PKMYT1_Y136_R140C] showed a phosphorylation enrichment of 0.549.
GGSDRYGSLRP [MYLK_Y846] was tested, and the phosphorylation enrichment was 0.37.
TWNPKYTLRSH [STRN3_Y474] showed a phosphorylation enrichment of 0.409.
Work on IRRQGYSHRIL [MYO3B_Y993] yielded a phosphorylation enrichment of 0.464.
PRQRRYVYYYS [PTEN_Y174_S170R] was tested, and the phosphorylation enrichment was 0.877.
GREEFYVHYVG [KAT8_Y90] showed a phosphorylation enrichment of 0.422.
For VSSPKYGGDDE [TMCC2_Y473_S475G], the phosphorylation enrichment was 0.416.

Each sequence was assayed against Fes (UniProt P07332) in the same assay as above.
Sequence of Fes (P07332 whole entry, looked up): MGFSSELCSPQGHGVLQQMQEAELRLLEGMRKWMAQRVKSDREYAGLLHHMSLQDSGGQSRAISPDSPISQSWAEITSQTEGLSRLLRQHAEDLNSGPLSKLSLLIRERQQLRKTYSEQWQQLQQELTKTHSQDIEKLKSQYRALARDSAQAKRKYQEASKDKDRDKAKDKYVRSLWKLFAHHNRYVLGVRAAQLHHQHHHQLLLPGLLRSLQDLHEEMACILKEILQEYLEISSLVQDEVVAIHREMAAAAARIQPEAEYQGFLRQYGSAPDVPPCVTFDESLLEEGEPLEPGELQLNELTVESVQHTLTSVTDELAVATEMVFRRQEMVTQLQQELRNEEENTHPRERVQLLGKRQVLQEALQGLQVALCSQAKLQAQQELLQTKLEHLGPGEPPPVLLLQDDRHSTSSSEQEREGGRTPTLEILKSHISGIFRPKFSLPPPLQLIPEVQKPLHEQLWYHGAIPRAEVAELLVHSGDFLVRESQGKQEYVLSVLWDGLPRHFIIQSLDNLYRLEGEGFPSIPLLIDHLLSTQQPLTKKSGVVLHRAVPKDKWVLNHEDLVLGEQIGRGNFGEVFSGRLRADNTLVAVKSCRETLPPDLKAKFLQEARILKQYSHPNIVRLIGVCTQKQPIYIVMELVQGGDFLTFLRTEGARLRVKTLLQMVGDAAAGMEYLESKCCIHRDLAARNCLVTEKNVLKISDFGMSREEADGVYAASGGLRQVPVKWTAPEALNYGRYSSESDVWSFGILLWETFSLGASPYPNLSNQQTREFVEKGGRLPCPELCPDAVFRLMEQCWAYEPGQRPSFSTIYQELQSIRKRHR
KWRGQYDVAIR [BTK_Y425_K430R] gave a phosphorylation enrichment of 0.698.
For LSPNMYNSKFW [TARSL2_Y457_L461F], the phosphorylation enrichment was 1.6.
Sequence EEGRVYVYHLS [ITGAE_Y549_R552H] has a phosphorylation enrichment of 1.22.
Sequence FHLLPYTIRAM [PARS2_Y93_V95I_YF] has a phosphorylation enrichment of 0.972.
Work on NNTFLYQLVFD [EXO1_Y284] yielded a phosphorylation enrichment of 1.21.
PIYLYYLMDLS [ITGB2_Y131_D128Y] was tested, and the phosphorylation enrichment was 3.42.
Sequence DAVCYYRMENA [NPHS2_Y195_I192V] has a phosphorylation enrichment of 1.1.
Work on PYSNSYENSLI [EPOR_Y489_P488S] yielded a phosphorylation enrichment of 1.41.
Sequence FEDALYTVLHR [UNC13D_Y61_YF] has a phosphorylation enrichment of 1.79.
Sequence ARLEYYENEKK [IRS1_Y47] has a phosphorylation enrichment of 1.01.
WAAQRYGRELR [BAD_Y110] gave a phosphorylation enrichment of 0.742.
With FENGEYIVRQG [PRKG1_Y247_I249V_YF] the phosphorylation enrichment was 0.962.
For EQKRYYNAMKK [SCN5A_Y1495_K1493R], the phosphorylation enrichment was 0.576.
With RFLTRYIFNRE [HLA-DQB1_Y62_V59L_YF] the phosphorylation enrichment was 1.17.
AASTDYYKRGD [PDHA1_Y242] was tested, and the phosphorylation enrichment was 0.811.
RIFDYYSARKA [STOX1_Y858] was tested, and the phosphorylation enrichment was 1.28.
Sequence CTTILYNFMCN [TP53_Y234_H233L_YF] has a phosphorylation enrichment of 1.22.
For KQFWRYFAGNL [SLC25A4_Y112], the phosphorylation enrichment was 1.03.
RVLHNYLVWCV [ECEL1_Y400_R404C] was tested, and the phosphorylation enrichment was 1.5.
For ADIETYLLEKS [MYH7_Y266], the phosphorylation enrichment was 1.12.
In the case of RLLVVYPWTKR [HBB_Y36_Q40K], the phosphorylation enrichment is reported as 0.829.
SGRPGYCLGTR [SCO1_Y60] was tested, and the phosphorylation enrichment was 0.874.
SVLVPYEPPEV [TP53_Y220_V217L] gave a phosphorylation enrichment of 1.33.
DEDYLYREELA [POR_Y575] was tested, and the phosphorylation enrichment was 1.36.
SNSATYSGSVA [PDLIM5_Y382] was tested, and the phosphorylation enrichment was 0.624.
Sequence QLHEHYKIHKE [NSMAF_Y626] has a phosphorylation enrichment of 0.95.
EDGRLYAVKCS [PKMYT1_Y136_R140C] gave a phosphorylation enrichment of 1.12.
GGSDRYGSLRP [MYLK_Y846] gave a phosphorylation enrichment of 0.61.
Sequence TWNPKYTLRSH [STRN3_Y474] has a phosphorylation enrichment of 0.74.
With IRRQGYSHRIL [MYO3B_Y993] the phosphorylation enrichment was 0.656.
With PRQRRYVYYYS [PTEN_Y174_S170R] the phosphorylation enrichment was 0.683.
In the case of GREEFYVHYVG [KAT8_Y90], the phosphorylation enrichment is reported as 1.16.
Work on VSSPKYGGDDE [TMCC2_Y473_S475G] yielded a phosphorylation enrichment of 0.903.

These sequences were tested on c-Src in the same assay as above.
In the case of KWRGQYDVAIR [BTK_Y425_K430R], the phosphorylation enrichment is reported as 0.389.
In the case of LSPNMYNSKFW [TARSL2_Y457_L461F], the phosphorylation enrichment is reported as 1.35.
EEGRVYVYHLS [ITGAE_Y549_R552H] showed a phosphorylation enrichment of 0.828.
FHLLPYTIRAM [PARS2_Y93_V95I_YF] gave a phosphorylation enrichment of 1.02.
Work on NNTFLYQLVFD [EXO1_Y284] yielded a phosphorylation enrichment of 2.28.
For PIYLYYLMDLS [ITGB2_Y131_D128Y], the phosphorylation enrichment was 6.42.
DAVCYYRMENA [NPHS2_Y195_I192V] showed a phosphorylation enrichment of 3.44.
Sequence PYSNSYENSLI [EPOR_Y489_P488S] has a phosphorylation enrichment of 0.689.
FEDALYTVLHR [UNC13D_Y61_YF] was tested, and the phosphorylation enrichment was 7.03.
ARLEYYENEKK [IRS1_Y47] showed a phosphorylation enrichment of 0.528.
WAAQRYGRELR [BAD_Y110] showed a phosphorylation enrichment of 0.487.
FENGEYIVRQG [PRKG1_Y247_I249V_YF] gave a phosphorylation enrichment of 0.43.
For EQKRYYNAMKK [SCN5A_Y1495_K1493R], the phosphorylation enrichment was 0.371.
Work on RFLTRYIFNRE [HLA-DQB1_Y62_V59L_YF] yielded a phosphorylation enrichment of 0.706.
AASTDYYKRGD [PDHA1_Y242] showed a phosphorylation enrichment of 0.523.
For RIFDYYSARKA [STOX1_Y858], the phosphorylation enrichment was 1.1.
For CTTILYNFMCN [TP53_Y234_H233L_YF], the phosphorylation enrichment was 2.16.
KQFWRYFAGNL [SLC25A4_Y112] gave a phosphorylation enrichment of 0.507.
RVLHNYLVWCV [ECEL1_Y400_R404C] showed a phosphorylation enrichment of 0.561.
In the case of ADIETYLLEKS [MYH7_Y266], the phosphorylation enrichment is reported as 0.731.
In the case of RLLVVYPWTKR [HBB_Y36_Q40K], the phosphorylation enrichment is reported as 0.583.
SGRPGYCLGTR [SCO1_Y60] gave a phosphorylation enrichment of 0.41.
Work on SVLVPYEPPEV [TP53_Y220_V217L] yielded a phosphorylation enrichment of 0.541.
Sequence DEDYLYREELA [POR_Y575] has a phosphorylation enrichment of 0.535.
SNSATYSGSVA [PDLIM5_Y382] showed a phosphorylation enrichment of 0.498.
For QLHEHYKIHKE [NSMAF_Y626], the phosphorylation enrichment was 0.777.
In the case of EDGRLYAVKCS [PKMYT1_Y136_R140C], the phosphorylation enrichment is reported as 0.63.
In the case of GGSDRYGSLRP [MYLK_Y846], the phosphorylation enrichment is reported as 0.452.
TWNPKYTLRSH [STRN3_Y474] gave a phosphorylation enrichment of 0.348.
Sequence IRRQGYSHRIL [MYO3B_Y993] has a phosphorylation enrichment of 0.42.
In the case of PRQRRYVYYYS [PTEN_Y174_S170R], the phosphorylation enrichment is reported as 0.728.
GREEFYVHYVG [KAT8_Y90] gave a phosphorylation enrichment of 0.486.
VSSPKYGGDDE [TMCC2_Y473_S475G] was tested, and the phosphorylation enrichment was 0.424.

What follows are sequences tested on c-Abl (mouse) in the same assay as above.
Work on KWRGQYDVAIR [BTK_Y425_K430R] yielded a phosphorylation enrichment of 0.539.
For LSPNMYNSKFW [TARSL2_Y457_L461F], the phosphorylation enrichment was 1.1.
EEGRVYVYHLS [ITGAE_Y549_R552H] gave a phosphorylation enrichment of 0.713.
FHLLPYTIRAM [PARS2_Y93_V95I_YF] was tested, and the phosphorylation enrichment was 0.621.
NNTFLYQLVFD [EXO1_Y284] showed a phosphorylation enrichment of 0.684.
Sequence PIYLYYLMDLS [ITGB2_Y131_D128Y] has a phosphorylation enrichment of 3.32.
Sequence DAVCYYRMENA [NPHS2_Y195_I192V] has a phosphorylation enrichment of 0.956.
PYSNSYENSLI [EPOR_Y489_P488S] gave a phosphorylation enrichment of 1.06.
Work on FEDALYTVLHR [UNC13D_Y61_YF] yielded a phosphorylation enrichment of 5.92.
ARLEYYENEKK [IRS1_Y47] gave a phosphorylation enrichment of 0.808.
WAAQRYGRELR [BAD_Y110] gave a phosphorylation enrichment of 0.599.
In the case of FENGEYIVRQG [PRKG1_Y247_I249V_YF], the phosphorylation enrichment is reported as 0.646.
In the case of EQKRYYNAMKK [SCN5A_Y1495_K1493R], the phosphorylation enrichment is reported as 0.447.
RFLTRYIFNRE [HLA-DQB1_Y62_V59L_YF] gave a phosphorylation enrichment of 0.631.
In the case of AASTDYYKRGD [PDHA1_Y242], the phosphorylation enrichment is reported as 0.615.
In the case of RIFDYYSARKA [STOX1_Y858], the phosphorylation enrichment is reported as 1.08.
CTTILYNFMCN [TP53_Y234_H233L_YF] gave a phosphorylation enrichment of 0.7.
For KQFWRYFAGNL [SLC25A4_Y112], the phosphorylation enrichment was 0.764.
In the case of RVLHNYLVWCV [ECEL1_Y400_R404C], the phosphorylation enrichment is reported as 0.933.
Work on ADIETYLLEKS [MYH7_Y266] yielded a phosphorylation enrichment of 0.746.
Sequence RLLVVYPWTKR [HBB_Y36_Q40K] has a phosphorylation enrichment of 0.602.
SGRPGYCLGTR [SCO1_Y60] gave a phosphorylation enrichment of 0.618.
Sequence SVLVPYEPPEV [TP53_Y220_V217L] has a phosphorylation enrichment of 0.874.
For DEDYLYREELA [POR_Y575], the phosphorylation enrichment was 0.903.
Sequence SNSATYSGSVA [PDLIM5_Y382] has a phosphorylation enrichment of 0.576.
In the case of QLHEHYKIHKE [NSMAF_Y626], the phosphorylation enrichment is reported as 0.623.
EDGRLYAVKCS [PKMYT1_Y136_R140C] gave a phosphorylation enrichment of 0.82.
GGSDRYGSLRP [MYLK_Y846] gave a phosphorylation enrichment of 0.495.
In the case of TWNPKYTLRSH [STRN3_Y474], the phosphorylation enrichment is reported as 0.473.
IRRQGYSHRIL [MYO3B_Y993] gave a phosphorylation enrichment of 0.469.
In the case of PRQRRYVYYYS [PTEN_Y174_S170R], the phosphorylation enrichment is reported as 0.769.
In the case of GREEFYVHYVG [KAT8_Y90], the phosphorylation enrichment is reported as 0.788.
VSSPKYGGDDE [TMCC2_Y473_S475G] was tested, and the phosphorylation enrichment was 0.517.
